Target: complement C3
Assay: SPR

B1: recombinant HC1 (rHC1), wild type; heavy chain 1 of inter-α-inhibitor (natural protein)
chain: SKSSEKRQAVDTAVDGVFIRSLKVNCKVTSRFAHYVVTSQVVNTANEAREVAFDLEIPKTAFISDFAVTADGNAFIGDIKDKVTAWKQYRKAAISGENAGLVRASGRTMEQFTIHLTVNPQSKVTFQLTYEEVLKRNHMQYEIVIKVKPKQLVHHFEIDVDIFEPQGISKLDAQASFLPKELAAQTIKKSFSGKKGHVLFRPTVSQQQSCPTCSTSLLNGHFKVTYDVSRDKICDLLVANNHFAHFFAPQNLTNMNKNVVFVIDISGSMRGQKVKQTKEALLKILGDMQPGDYFDLVLFGTRVQSWKGSLVQASEANLQAAQDFVRGFSLDEATNLNGGLLRGIEILNQVQESLPELSNHASILIMLTDGDPTEGVTDRSQILKNVRNAIRGRFPLYNLGFGHNVDFNFLEVMSMENNGRAQRIYEDHDATQQLQGFYSQVAKPLLVDVDLQYPQDAVLALTQNHHKQYYEGSEIVVAGRIADNKQSSFKADVQAHGEGQEFSITCLVDEEEMKKLLRERGHMLENHVERLWAYLTIQELLAKRMKVDREERANLSSQALQMSLDYGFVTPLTSMSIRGMADQDGLKPTIDKPSEDSPPLEMLGPRRTFVLSALQPSPTHSSSNTQRLPDRVTGVDTD
Kd: 360 nM

— publication doi:10.1101/695700
